Experimental findings from the supplement of paper PMC5998384 are described below.

For data set [1], the system named is HeLa Kyoto. In words: solubility in G1/S (NP-40 vs SDS abundance) (log2 ratio); higher = more soluble. Conditions: cell cycle stage: G1/S.
In data set [2] the test system is HeLa Kyoto. In words: melting temperature (median over replicates), in situ; higher = more thermally stable.
The subject of data set [3] is HeLa Kyoto. In words: solubility change mitosis vs G1/S (difference of NP-40 vs SDS log2 ratios) (log2 ratio difference); higher = more soluble in mitosis.
For data set [4], the system named is HeLa Kyoto. Description: thermal stability score vs G1/S (z-score of summed log2 fold changes over temperatures); higher = more thermally stable than in G1/S.
Where [5] appears, read: cell cycle stage: early G1 (4.5 h after nocodazole release).
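Wherever melting temperature (median over replicates), in situ is given: HeLa Kyoto cells synchronized by double thymidine or nocodazole block, proteins quantified by TMT10plex mass spectrometry, three independent biological replicates.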
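Wherever solubility change mitosis vs G1/S (difference of NP-40 vs SDS log2 ratios) is given: synchronized HeLa Kyoto cells (double thymidine block for G1/S, nocodazole release for mitosis), protein amounts in NP-40 versus SDS lysates quantified by mass spectrometry, three biological replicates.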
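Wherever solubility in G1/S (NP-40 vs SDS abundance) is given: HeLa Kyoto cells arrested at G1/S by double thymidine block, proteins quantified by TMT10plex mass spectrometry in mild NP-40 versus SDS extracts, three biological replicates.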
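Wherever thermal stability score vs G1/S (z-score of summed log2 fold changes over temperatures) is given: synchronized HeLa Kyoto cells, proteins quantified by TMT10plex mass spectrometry, three biological replicates, mitosis taken 0.5 h after nocodazole release, G1/S directly after double thymidine block.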

“MAASTGYVRLWGAARCWVLRRPMLAAAGGRVPTAAGAWLLRGQRTCDASPPWALWGRGPAIGGQWRGFWEASSRGGGAFSGGEDASEGGAEEGAGGAGGSAGAGEGPVITALTPMTIPDVFPHLPLIAITRNPVFPRFIKIIEVKNKKLVELLRRKVRLAQPYVGVFLKRDDSNESDVVESLDEIYHTGTFAQIHEMQDLGDKLRMIVMGHRRVHISRQLEVEPEEPEAENKHKPRRKSKRGKKEAEDELSARHPAELAMEPTPELPAEVLMVEVENVVHEDFQVTEEVKALTAEIVKTIRDIIALNPLYRESVLQMMQAGQRVVDNPIYLSDMGAALTGAESHELQDVLEETNIPKRLYKALSLLKKEFELSKLQQRLGREVEEKIKQTHRKYLLQEQLKIIKKELGLEKDDKDAIEEKFRERLKELVVPKHVMDVVDEELSKLGLLDNHSSEFNVTRNYLDWLTSIPWGKYSNENLDLARAQAVLEEDHYGMEDVKKRILEFIAVSQLRGSTQGKILCFYGPPGVGKTSIARSIARALNREYFRFSVGGMTDVAEIKGHRRTYVGAMPGKIIQCLKKTKTENPLILIDEVDKIGRGYQGDPSSALLELLDPEQNANFLDHYLDVPVDLSKVLFICTANVTDTIPEPLRDRMEMINVSGYVAQEKLAIAERYLVPQARALCGLDESKAKLSSDVLTLLIKQYCRESGVRNLQKQVEKVLRKSAYKIVSGEAESVEVTPENLQDFVGKPVFTVERMYDVTPPGVVMGLAWTAMGGSTLFVETSLRRPQDKDAKGDKDGSLEVTGQLGEVMKESARIAYTFARAFLMQHAPANDYLVTSHIHLHVPEGATPKDGPSAGCTIVTALLSLAMGRPVRQNLAMTGEVSLTGKILPVGGIKEKTIAAKRAGVTCIVLPAENKKDFYDLAAFITEGLEVHFVEHYREIFDIAFPDEQAEALAVER [LONP1]”: in the data set on HeLa Kyoto [1], the “solubility in G1/S (log2)” value came to 0.12. Further, the melting temperature in the data set with HeLa Kyoto [2] (cell cycle stage: G1/S) worked out at 54.4 °C; in the data set with HeLa Kyoto [2] (cell cycle stage: mitosis), 53.6 °C. Besides, the “solubility change mitosis (log2)” value with HeLa Kyoto [3] was -0.0806. In addition, the thermal stability score is -0.58 with HeLa Kyoto [4] (setting [5]) and -1.35 in the data set on HeLa Kyoto [4] (cell cycle stage: mitosis).

As for “MAASWRLGCDPRLLRYLVGFPGRRSVGLVKGALGWSVSRGANWRWFHSTQWLRGDPIKILMPSLSPTMEEGNIVKWLKKEGEAVSAGDALCEIETDKAVVTLDASDDGILAKIVVEEGSKNIRLGSLIGLIVEEGEDWKHVEIPKDVGPPPPVSKPSEPRPSPEPQISIPVKKEHIPGTLRFRLSPAARNILEKHSLDASQGTATGPRGIFTKEDALKLVQLKQTGKITESRPTPAPTATPTAPSPLQATAGPSYPRPVIPPVSTPGQPNAVGTFTEIPASNIRRVIAKRLTESKSTVPHAYATADCDLGAVLKVRQDLVKDDIKVSVNDFIIKAAAVTLKQMPDVNVSWDGEGPKQLPFIDISVAVATDKGLLTPIIKDAAAKGIQEIADSVKALSKKARDGKLLPEEYQGGSFSISNLGMFGIDEFTAVINPPQACILAVGRFRPVLKLTEDEEGNAKLQQRQLITVTMSSDSRVVDDELATRFLKSFKANLENPIRLA [PDHX]”, the “solubility in G1/S (log2)” value in the data set with HeLa Kyoto [1] amounted to 0.248. Further, the melting temperature in the data set on HeLa Kyoto [2] (cell cycle stage: G1/S) was 53.5 °C; with HeLa Kyoto [2] (cell cycle stage: mitosis), 52.9 °C. Further, the “solubility change mitosis (log2)” value in the data set with HeLa Kyoto [3] was -0.00638. In addition, the thermal stability score in the data set with HeLa Kyoto [4] (setting [5]) is -1.5; with HeLa Kyoto [4] (cell cycle stage: mitosis), -1.54.

As to “MAATELRGVVGPGPAAIAALGGGGAGPPVVGGGGGRGDAGPGSGAASGTVVAAAAGGPGPGAGGVAAAGPAPAPPTGGSGGSGAGGSGSAREGWLFKWTNYIKGYQRRWFVLSNGLLSYYRSKAEMRHTCRGTINLATANITVEDSCNFIISNGGAQTYHLKASSEVERQRWVTALELAKAKAVKMLAESDESGDEESVSQTDKTELQNTLRTLSSKVEDLSTCNDLIAKHGTALQRSLSELESLKLPAESNEKIKQVNERATLFRITSNAMINACRDFLMLAQTHSKKWQKSLQYERDQRIRLEETLEQLAKQHNHLERAFRGATVLPANTPGNVGSGKDQCCSGKGDMSDEDDENEFFDAPEIITMPENLGHKRTGSNISGASSDISLDEQYKHQLEETKKEKRTRIPYKPNYSLNLWSIMKNCIGKELSKIPMPVNFNEPLSMLQRLTEDLEYHELLDRAAKCENSLEQLCYVAAFTVSSYSTTVFRTSKPFNPLLGETFELDRLEENGYRSLCEQVSHHPPAAAHHAESKNGWTLRQEIKITSKFRGKYLSIMPLGTIHCIFHATGHHYTWKKVTTTVHNIIVGKLWIDQSGEIDIVNHKTGDKCNLKFVPYSYFSRDVARKVTGEVTDPSGKVHFALLGTWDEKMECFKVQPVIGENGGDARQRGHEAEESRVMLWKRNPLPKNAENMYYFSELALTLNAWESGTAPTDSRLRPDQRLMENGRWDEANAEKQRLEEKQRLSRKKREAEAMKATEDGTPYDPYKALWFERKKDPVTKELTHIYRGEYWECKEKQDWSSCPDIF [OSBP]”, in the data set on HeLa Kyoto [1], the “solubility in G1/S (log2)” value was -0.0183. Moreover, the results for the melting temperature in the data set with HeLa Kyoto [2] (cell cycle stage: G1/S) and in the data set on HeLa Kyoto [2] (cell cycle stage: mitosis) were 52.1 °C and 51.9 °C, respectively. Besides, in the data set with HeLa Kyoto [3], the “solubility change mitosis (log2)” value was -0.212. The thermal stability score with HeLa Kyoto [4] (setting [5]) was -1.23; in the data set with HeLa Kyoto [4] (cell cycle stage: mitosis), -0.683.

In the case of “MAATLGPLGSWQQWRRCLSARDGSRMLLLLLLLGSGQGPQQVGAGQTFEYLKREHSLSKPYQGVGTGSSSLWNLMGNAMVMTQYIRLTPDMQSKQGALWNRVPCFLRDWELQVHFKIHGQGKKNLHGDGLAIWYTKDRMQPGPVFGNMDKFVGLGVFVDTYPNEEKQQERVFPYISAMVNNGSLSYDHERDGRPTELGGCTAIVRNLHYDTFLVIRYVKRHLTIMMDIDGKHEWRDCIEVPGVRLPRGYYFGTSSITGDLSDNHDVISLKLFELTVERTPEEEKLHRDVFLPSVDNMKLPEMTAPLPPLSGLALFLIVFFSLVFSVFAIVIGIILYNKWQEQSRKRFY [LMAN2L]”, in the data set on HeLa Kyoto [1], the “solubility in G1/S (log2)” value was -0.0714. Besides, the melting temperature with HeLa Kyoto [2] (cell cycle stage: G1/S) was 53.7 °C; in the data set on HeLa Kyoto [2] (cell cycle stage: mitosis), 54.1 °C. Also, the “solubility change mitosis (log2)” value with HeLa Kyoto [3] is -0.146. In addition, the thermal stability score with HeLa Kyoto [4] (setting [5]) is -0.409; in the data set on HeLa Kyoto [4] (cell cycle stage: mitosis) it was -1.27.
